The target in the assay is T1, Methylosinus trichosporium OB3b MbnBC enzyme complex (wild type) (Methylosinus trichosporium OB3b, UniProt A0A2D2D5M1;A0A2D2CY73).
T1 sequence 1: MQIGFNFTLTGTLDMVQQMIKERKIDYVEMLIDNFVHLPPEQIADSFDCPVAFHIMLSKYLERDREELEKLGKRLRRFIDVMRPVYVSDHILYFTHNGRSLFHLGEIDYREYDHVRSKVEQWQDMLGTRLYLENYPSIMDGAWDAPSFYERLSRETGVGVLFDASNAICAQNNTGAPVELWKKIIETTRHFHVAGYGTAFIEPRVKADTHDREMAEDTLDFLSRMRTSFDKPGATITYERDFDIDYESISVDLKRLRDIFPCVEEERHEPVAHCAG
T1 sequence 2: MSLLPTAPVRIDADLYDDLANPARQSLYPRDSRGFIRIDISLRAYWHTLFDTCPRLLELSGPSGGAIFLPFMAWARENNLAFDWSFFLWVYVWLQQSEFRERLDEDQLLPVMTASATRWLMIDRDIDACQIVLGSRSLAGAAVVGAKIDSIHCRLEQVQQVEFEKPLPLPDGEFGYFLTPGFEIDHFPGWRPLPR
Briefly: EPR spectroscopy.

B1: MbnA precursor peptide from Ms. trichosporium OB3b (peptide)
peptide: MTVKIAQKKVLPVIGRAAALCGSCYPCSCM
For B1, the binding result is “binds”.

(Values after paper PMC9060507 (Proceedings of the National Academy of Sciences of the …, 2022).)
